From US20260317413 (published 2026) come the findings set out here.

Read-outs that look alike come from different tables or passages of the source.

The target in test [1] is T1, alpha-cobratoxin (Naja kaouthia, UniProt P01391).
T1 chain: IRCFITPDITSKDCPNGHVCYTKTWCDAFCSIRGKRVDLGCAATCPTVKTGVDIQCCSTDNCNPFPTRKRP
The test can be described thus: BLI. For orientation: BLI is a label-free optical method that tracks binding on a fibre tip over time.

The target of test [2] is T2, alpha-bungarotoxin (Bungarus multicinctus, UniProt P60615). Briefly: BLI.
Test [3] addresses T1, alpha-cobratoxin. Briefly: SPR.
For test [4], the target named is T1, alpha-cobratoxin. Briefly: BLI.
The target in test [5] is T1, alpha-cobratoxin. The test can be described thus: BLI.
For test [6], the target named is T2, alpha-bungarotoxin. Briefly: BLI. The source holds these as a separate data set.
Test [7] has as its target T1, alpha-cobratoxin. Briefly: SPR. For orientation: In SPR one partner is held on a chip, and binding of the other changes the refractive index at the surface.
Test [8] concerns the target T1, alpha-cobratoxin. The test can be described thus: BLI.

T2 sequence (P60615 22-95): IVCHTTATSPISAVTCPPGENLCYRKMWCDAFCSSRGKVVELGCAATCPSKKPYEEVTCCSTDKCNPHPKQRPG

B1: 2554_01_D11 (antibody, V domains shown)
VH: QVQLVQSGAEVKKPGSSVKVSCKASGGTFSSYAISWVRQAPGQGLEWMGGIIPIFGTANYAQKFQGRVTITADESTSTAYMELRSLRSDDTAVYYCARDNLGYCSGGSCYSDYYYYYMDVWGQGTLVTVSS
VL: SNFMLTQPRSVSESPGKTVTISCTRSSGSIGSDYVHWYQQRPGSSPTTVIYEDNQRPSGVPDRFSGSIDSSSNSASLTISGLKTEDEADYYCQSYDRSNHEVVFGGGTKLTVL
In general, koff refers to a measure of how fast the partners let go of each other. Higher therefore signals a short-lived complex. The Kd is the free concentration of one partner at which half of the binding sites on the other are occupied at equilibrium, for simple one-to-one binding. A lower Kd goes with higher affinity. Regarding B1, the koff with alpha-cobratoxin [1] came out at 0.000327 s⁻¹; with alpha-cobratoxin [5] it was 0.000396 s⁻¹; in the test with alpha-bungarotoxin [6] it was 0.00388 s⁻¹. Besides, the Kd in the test with alpha-bungarotoxin [2] was found to be 122 nM; with alpha-cobratoxin [3], 2.3 nM; with alpha-cobratoxin [4], 2.9 nM; with alpha-cobratoxin [7] it was 10.4 nM; with alpha-cobratoxin [8], 2.91 nM.
